Measured values: paper PMC7659713 (The Journal of Cell Biology, 2020)

Target: the molecule itself
Assay: native gel or EMSA

B1: FLAG-Pex14p(156–376)SD (domain or fragment, rat, UniProt Q642G4 156-376, looked up)
chain: SGSVAQTVTQVQTTLASVQELLRQQQQKVQELAHELAAAKATTSTNWILESQNINELKSEINSLKGLLLNRRQFPPDPSAPKIPSWQIPVKSPSPSSPAAVNHHSSSDISPVSNESPSSSPGKDGHSPEGSTATYRLLGPQEEGEGVVDVKGQVRMEVQGEEEKREDEEGEEDEDDDVSHVDEEDVLGVQREDRRGGDGQINEQVEKLRRPEGASNESERD
Question: Which “fold formation of homo-oligomer against WT or SA mutant” value does the source give for B1 here?
Answer: ~1.5 fold
